This is an account of results in IntAct's records for PubMed 22228096.

This assay deals with dnm1l_human DNM1L (UniProt O00429).
Sequence of dnm1l_human DNM1L (O00429 whole entry): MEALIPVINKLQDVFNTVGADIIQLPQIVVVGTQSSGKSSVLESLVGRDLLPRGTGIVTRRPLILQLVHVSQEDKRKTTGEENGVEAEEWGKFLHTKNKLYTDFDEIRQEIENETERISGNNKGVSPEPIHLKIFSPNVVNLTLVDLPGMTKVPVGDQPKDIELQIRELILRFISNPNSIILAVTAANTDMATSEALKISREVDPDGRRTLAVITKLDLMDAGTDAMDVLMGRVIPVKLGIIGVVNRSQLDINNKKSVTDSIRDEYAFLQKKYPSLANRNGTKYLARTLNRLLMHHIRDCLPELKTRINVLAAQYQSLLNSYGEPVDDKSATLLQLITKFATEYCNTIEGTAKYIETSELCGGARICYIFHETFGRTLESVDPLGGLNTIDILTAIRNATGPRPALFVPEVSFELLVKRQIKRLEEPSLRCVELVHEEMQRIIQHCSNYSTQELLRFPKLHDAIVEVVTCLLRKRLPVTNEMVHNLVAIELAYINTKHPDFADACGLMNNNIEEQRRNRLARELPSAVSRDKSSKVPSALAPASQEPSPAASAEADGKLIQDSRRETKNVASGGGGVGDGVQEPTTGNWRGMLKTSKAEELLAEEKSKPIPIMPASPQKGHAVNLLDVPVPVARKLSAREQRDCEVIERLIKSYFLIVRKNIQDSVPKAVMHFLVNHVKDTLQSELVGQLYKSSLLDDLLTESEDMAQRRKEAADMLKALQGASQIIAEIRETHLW
On to “Leucine-rich repeat serine/threonine-protein kinase 2 (Homo sapiens), Q5S007 D1994A”, for which the “effect of a mutation on the interaction” value is given as “decreasing interaction”.

For “Leucine-rich repeat serine/threonine-protein kinase 2 (Homo sapiens), Q5S007 G2019S”, the “effect of a mutation on the interaction” value is “increasing interaction”. As for “Leucine-rich repeat serine/threonine-protein kinase 2 (Homo sapiens), Q5S007 K1347A”, the entry is “decreasing interaction”; as for “Leucine-rich repeat serine/threonine-protein kinase 2 (Homo sapiens), Q5S007 R1441C”, “increasing interaction”.
